This experiment has as its target GST coupled TRPM8 N terminal fragment (1~691) (UniProt Q7Z2W7). Briefly: pull-down.

Among the data in paper PMC3428855 are fold Gαq bound relative to TRPM8 C terminal values, retold here.

UniProt Q7Z2W7, sequence (Q7Z2W7 1-691): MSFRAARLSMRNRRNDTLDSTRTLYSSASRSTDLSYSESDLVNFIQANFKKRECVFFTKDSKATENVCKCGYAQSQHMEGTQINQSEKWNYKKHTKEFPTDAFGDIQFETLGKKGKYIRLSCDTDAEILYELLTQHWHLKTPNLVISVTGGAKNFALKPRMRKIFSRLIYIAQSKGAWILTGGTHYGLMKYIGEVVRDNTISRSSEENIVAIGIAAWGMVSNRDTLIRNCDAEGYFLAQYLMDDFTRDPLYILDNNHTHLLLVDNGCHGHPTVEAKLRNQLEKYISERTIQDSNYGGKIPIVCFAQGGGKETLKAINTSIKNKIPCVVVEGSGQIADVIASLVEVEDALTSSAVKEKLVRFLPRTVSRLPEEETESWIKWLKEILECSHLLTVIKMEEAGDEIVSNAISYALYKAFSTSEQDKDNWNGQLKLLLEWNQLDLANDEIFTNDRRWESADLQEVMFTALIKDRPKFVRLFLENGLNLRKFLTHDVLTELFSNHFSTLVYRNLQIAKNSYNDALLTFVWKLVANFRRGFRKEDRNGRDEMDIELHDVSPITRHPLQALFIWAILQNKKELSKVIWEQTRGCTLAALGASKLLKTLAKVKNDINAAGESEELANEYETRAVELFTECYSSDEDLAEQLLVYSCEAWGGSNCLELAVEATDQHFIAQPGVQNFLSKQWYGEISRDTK

With “Gαq (wild type) (from UniProt P50148 1-359) (natural protein)”, the fold Gαq bound relative to TRPM8 C terminal turned out to be 1.28 fold.
